Test results: US20190381171A1, “CO-USE OF ANTI-BCMA ANTIBODY AND ANTIBODY-COUPLED T CELL RECEPTOR (ACTR) IN CANCER THERAPY AND B CELL DISORDERS” (UNUM THERAPEUTICS INC., priority 2017, published 2019)

Key:
Type in all cases: cell-based, human
[1] = test system: NCI-H929 target cells; test: Activation markers (CD25, CD69) on ACTR T-cells by flow cytometry; settings: ACTR variant SEQ ID NO: 1, E:T 1:1, 1 μg/mL antibody, 24 hours
Description: T-cells (effector; E) and target cells (target; T) were incubated at a 1:1, effector-to-target ratio (30,000 T cells; 30,000 target cells) with 1 μg/mL of anti-BCMA antibodies in a 200-μL reaction volume in RPMI 1640 media supplemented with 10% fetal bovine serum. Reactions were incubated in a CO2 (5%) incubator at 37 degrees C. for 24 hours. Geometric Mean Fluorescence intensity (gMFI) of two activation markers, CD25 and CD69 were determined in the total CD3+ CD16+ ACTR T-cell gate via flow cytometry. Briefly, cells were washed twice in staining buffer before being stained with a Live/Dead eFluor-450 dye for 30 min at 4 degrees C. After incubating in the live/dead cell stain, cells were washed twice and incubated with 100 μL of an antibody cocktail consisting of AF488-conjugated anti-human CD3 antibody, APC-conjugated anti-human CD16 antibody, PerCP-Cy5.5-conjugated anti-human CD25 antibody, and BV510-conjugated anti-human CD69 antibody. Subsequently, cells were washed twice, fixed, permeabilized, and stained for intracellular molecules prior to detection via flow cytometry. […]
T-cells (effector; E) and NCI-H929 target cells (target; T) were incubated at varying effector-to-target ratios in the presence of 1 μg/mL hSG16.17 SEA antibody. […] The geometric mean fluorescence intensity of CD25 was calculated within the CD3+ T-cell gate and was plotted as a function of E:T ratio (FIG. 17).

[2] = test system: U266B1 target cells; test: Cytotoxicity assay with luciferase-expressing target cells and ACTR T-cells
Description: (§1) T-cells expressing ACTR variant SEQ ID NO: 1 (effector; E) and target cells (target; T) were incubated at a 4:1, effector-to-target ratio (120,000 T cells; 30,000 target cells) with increasing concentrations of various chimeric anti-BCMA antibodies (FIG. 3, parts A and B), humanized anti-BCMA antibody clones (FIG. 5, parts A and B), or anti-BCMA antibodies derived from the NCI-murine BCMA CAR sequence shown in WO2010104949A2 (FIG. 6, parts A and B) in a 200-μL reaction volume with RPMI 1640 media supplemented with 10% fetal bovine serum. The chimeric and humanized antibodies analyzed included fucosylated and afucosylated (labeled as “SEA”) versions of the SG16.17 and SG16.45 anti-BCMA antibodies. Reactions were incubated in a CO2 (5%) incubator at 37 degrees C. for 24 or 48 hours. An equal volume of Bright-Glo luciferase assay reagent (Promega; Madison, Wis.) was added prior to a 10 minute room temperature incubation. Luminescence was measured using an EnVision Multi-label plate reader (PerkinElmer; Waltham, Mass.). The percentage of live cells was determined by dividing the luminescence signal of a given sample by the luminescence signal in the absence of antibody and multiplying by 100. The percent cytotoxicity was determined by subtracting the percentage of live cells from 100. The percentage of antibody specific cytotoxicity (%) was then plotted as a function of antibody concentration.
(§2) In FIG. 8, T-cells expressing ACTR variant SEQ ID NO: 1 (effector; E) and target cells (target; T) were incubated at a 4:1, effector-to-target ratio (120,000 T cells; 30,000 target cells) with increasing concentrations of humanized afucosylated (SEA) anti-BCMA antibody SG16.17 in a 200-μL reaction volume in RPMI 1640 media supplemented with 10% fetal bovine serum. Target-cell luminescence was measured and percent cytotoxicity was determined as in Example 3.
(§3) T-cells (effector; E) and target cells (target; T) were incubated at varying effector-to-target (E:T) cell ratios in the presence of 10 μg/mL anti-BCMA antibody (FIG. 13), in a 200-μL reaction volume in RPMI 1640 media supplemented with 10% fetal bovine serum. The antibodies included fucosylated and afucosylated (SEA) versions of the two anti-BCMA antibodies (SG16.17 and SG16.45). […] Target cell luminescence was measured and percent cytotoxicity was determined as in Example 3.
(§4) In FIG. 18, T-cells (effector; E) and target cells (target; T) were incubated at a 4:1, effector-to-target ratio (30,000 target cells) with increasing concentration of humanized afucosylated anti-BCMA antibody hSG16.17SEA in a 200-μL reaction volume in RPMI 1640 media supplemented with 10% fetal bovine serum. […] Target cell luminescence was measured and percent cytotoxicity was determined as described in Example 3.

[3] = test system: NCI-H929 target cells; test: as above
Description: as §1, §2, §3, §4

[4] = T-cells expressing ACTR variant SEQ ID NO: 1, E:T 4:1, increasing antibody concentrations, 24 or 48 hours

B1: cSG16.45SEA: afucosylated (SEA) version of the chimeric SG16.45 anti-BCMA antibody (antibody, V domains shown)
VH: EVQLVESGGGLVQPGRSLKLSCVASGFTFNDHWMTWIRQAPGRGLEWISSITNTGGATYYLDSVKGRFTISRDNAKSTLYLQMNSLRSEDTATYYCTSPGLYFDYWGQGVMVTVSS
VL: EIVLTQSPTTTAASPGEKVTITCLATSSVSVMYWYQHKSGASPKLLIYSTSSLASGVPDRFSGSGSGTSYSLTINTMEAEDAATYYCHQWSSDPPTFGSGTKLEIKR
With B1 the “levels of activation markers CD25 and CD69 (gMFI) on ACTR T-cells” value [1] was “enhanced expression of CD25 and CD69 when compared to incubations with their fucosylated counterparts”, the “cytotoxicity at varying E:T ratios” value ([2]; T-cells expressing ACTR variant SEQ ID NO: 1, 10 μg/mL anti-BCMA antibody, 48 hours) was “increased potency in comparison to the fucosylated antibodies” and the antibody specific cytotoxicity [2, 4] was “increased cytotoxicity when compared with the fucosylated antibodies”. The “cytotoxicity at varying E:T ratios” value ([3]; T-cells expressing ACTR variant SEQ ID NO: 1, 10 μg/mL anti-BCMA antibody, 24 hours) was “increased potency in comparison to the fucosylated antibodies” and the antibody specific cytotoxicity [3, 4] was “increased cytotoxicity when compared with the fucosylated antibodies”.
